Assay: label from the status in PepcDB records

Sequence | protein production
MLTSFKLHSLKPYTLKSSMILEIITYILCFFSMIIAFVDNTFSIKIYNITAIVCLLSLILRGRQENYNIKNLILPLSIFLIGLLDLIWYSAFKVDNSPFRATYHSYLNTAKIFIFGSFIVFLTLTSQLKSKKESVLYTLYSLSFLIAGYAMYINSIHENDRISFGVGTATGAAYSTMLIGIVSGVAILYTKKNHPFLFLLNSCAVLYVLALTQTRATLLLFPIICVAALIAYYNKSPKKFTSSIVLLIAILASIVIIFNKPIQNRYNEALNDLNSYTNANSVTSLGARLAMYEIGLNIFIKSPFSFRSAESRAESMNLLVAEHNRLRGALEFSNVHLHNEIIEAGSLKGLMGIFSTLFLYFSLFYIAYKKRALGLLILTLGIVGIGLSDVIIWARSIPIIIISAIVLLLVINNRNNTIN | failed
MLTTFLATVIGWYLVIVSLFLLFHNEHAKSAMAEIIAHRGSQLIMAIVTLITGLLLVVSHNIWVMGWPVVITLFAWLVLLGGLIRFLCPDTAVRIGQSFVDNPMRLKIAAVIFFIIGLFLLFNVYYVYLK | failed
MLTTLQNIMKLPNEIDEYLASRNFSENTRSNYHYDLVSLQAFFEDKSLTTENLELYKIQISNLSPAAQRRKISSANQYLLFLYQRQKVDQYFKIKQVVQKKSQTAQSYHPMIKEFPEFYGPLTCPGQFLALLILEFGLNFAEIQKLKWENFNWNFKYLTIEKAGIKRVLPIREKFAIRVKAINNADELFAKSRQFLYTELKKFTNYSSKEIREQYILHQVKAGKSIYELATLLGLTTITTLEKYYR | failed
MLTTNASSKIFSKASTAELVGHTRKVHCLSWNPKGGLLGSGGVDCVARIWDVEKLQQKAELEGHTSSIEQLKWDPTANVFFVSASLDHKVLFWDLRARNSEPVASVETQGENINLAWSQDGVYCAVGDKDDNLSFIDVRKFDFFERFQFAEEVNEFKWSPSGPFFFMTLGKEVLVFRWPTMEQQLRLQVHADRCYCLEFDRSGRYFALGGADSIISLWETEYMLCTWTVDRLEYPIRTISFSHDGQFIAAGSEDSVIDISDILNGRQTYALGVKGATNVVAWHPSRHLLAYATEEEYSRDGVAIHLYGTISKDNI | failed
MLTVTFTVSNTGDRAGAAVPQVYPGFPNTTIDRCVRELKAFRRVELEPGQRQTVTVALTRRDLSYWDILPHPLRSYAVGSILEHHHHHH | failed
MLVDSQYKECVKEIINWGLFLYSEESRRNLIHDSLVELRCHFTWELVIKDNYMPDLEAKILETEFLDTNYNMGMHNLMAYVRHLKGEQEEALQSLKEAEALIEGEQLGKRSLVTWGNCAWVHYHRGSLAEAQIYLDKVENVCREFASPFRYRMECAEIDCEEGWALLKCGGSNCTRAMACFAKALQEEPENPEYNAGYAITAFRMDFSNEISLEPLRKAVRLNPEDPHLKVLLALKLQDLGKQDEAEKHIEEALPKIPSRNNIFGYVAKFYRRKGCVEEALEFLERALKTKPSSVYLHFQIGLCHKSRVFQIKEATNMHPKGKDRERADQSIRSAIYYFEKTLDLKPTYERAYIDLAEMYAESKQFEEAEEAFQKVLSMLSNLEVHMQQEIHFRYGKFQQFHMKSENIAITHYLKGLKIEVTSIFRDKLLKALQKLAERRMQQNVHVLESLSLLGFVYRLKGDTRKAMSCYEKALRLTEELNPEF | failed
MLVFEIIIGLLLAGAALTALSRRIGTPYPALVALAGAALALVPGTPTLVLEPDLALTLFVAPVLLDAAYDASQRDLRASWRTVAGLAVGAVALTVVVVAVVARALVPGMPWAVAVALGAIVAPPDAAAATAVLGQLRPPHRLMVILEGESLFNDASALLVYRLAVGAALAGALSPVEVLPPLLASTAGSVALGYGLSRVIPPLIARIEDVPIAVVVQFCGTFAVWIVAERLHLSGILTVVVFAMASAQRAAGQMAARVRIPSYAVWGFAVFVLNVLAFILVGFQLKAILGRIDAPTLLRYAGVAGAVCLAAVVARIAWVSGTAAVSRLRCRPTEDGSKARPDTIGLSPRGAAVVGWCGMRGIVTLAAALALPTGARGAPPFPHRDLVVFTAFAVVLGTLVLQGMTLRPLMRALRLEGDRSVDREVRLARVETLRAGLSATDGAAGDPLSDVLRRRYELLLRGAEAELRGGAAPQAPPAGGDVDPRAGAAVARRAVEAERGRLLALRSDGTIGDAAFQRVEEELDLEELSLRRLARDGAREAS | failed
MLVLDVAARVWPFFLLVAAGVALSRLRLLDARMTQGLSAYVYWVGFPALLIHSLSRLGRPGPELWSGLAAYAAVGLAVMASLVVGGRALGWSRPERAGAAMAAGVGNSAFLAVPVTAAVLGAETARLVAGAIAADFVVLAAAGVGLLGWAAGRSVWRAMAQAFQNPVVIAALLGLLLALLNLALPQPLDRAVGLAAASGSPVGLVALGAALGLPQTEDEPGPRAGPVVLAALAKLLAFPLLVWLAIGLTPAPAEFRTGATLVAAAPTAVNVFIQTRAYGVWPRGAARIVALTTALAIVSLSLVAILLTARVS | failed
MLVLYRASIRFKLRKNKNSFDSSNYFYGGNNICIINTKWGKHSGIGGYAEIIDTLVGNFTNISSWAKIGIRDHIHTNFLICDFVYKDNDHIMPPGISSFEDYWVKIGNDVWVGTNVTILRGVEVGDGAVIAAGSVVTKSIPPYAIVGGNPAKFIKWRFPFEVREKLLEIKWWDWDDDLIKEKKDYLQNLVGFDMDKYKIEYRKRKEDLFYLEHHHHHH | not failed
MLVQKNEAFLWLHFYLISNFIVVIMQMFILVMYYLIIVDHSFVELNEQVNPLFSFLLFVFHSDLSFFPVLVQLIF | failed
MLVSLIYVFKQVLSANLDLFYILSLILLIKSLIKKEKYLIKLLYVIYIILFYTGIQIIFLNTSIDLIRYFVSSFKLILNFNLLFYIIKKIKFININKIIKNISYIFFIILVFALILRNNNILWRLNDYVNTFEEVRLRFFYYEPSELGFQVAIIIIIFVFKIYTKKIINKKDFCIIIFLSIILSLTSAYGAIISLMLALIPILFKSFKLNSYKKLLIAYSIILISIVIIYLNFYKISDSYIVQRGLSIISGEDGSVNYRFDIGLNIMINALKNTNLLGVGLSNANTDNFIIEYSNFGLVEVIANSFMYVITELGVLAVVFLVYLLIKCLISAKINNSILKLSLIIYIFSYQIAGGYFSNPTNWIIYGIILSNIKDEELFGRKD | failed
MLYIDKATILKFDLEMLKKHRRAIQFIAVLLFIVGLLCISFPFVSGDILSTVVGALLICSGIALIVGLFSNRSHNFWPVLSGFLVAVAYLLIGYFFIRAPELGIFAIAAFIAGLFCVAGVIRLMSWYRQRSMKGSWLQLVIGVLDIVIAWIFLGATPMVSVTLVSTLVGIELIFSAASLFSFASLFVKQQ | failed
MMAIQRVGIIGAGKVGIVLAGLALDAGYTVRISGSGSVKKIALTIKTLVPGAIASENADVVANSDIILLAIPLSRYKNIDADLLKGKLVIDAMNYWWETDGIREEVLDPSTTSSEQVQTYFKDAKIVKAFNHMGYHNLQEEARPKGDPKRKALFVTGNDPEAVATVAAFVDHMGFDTVVHNNLADGIMTEPGSPLFGASLRYAELKDIIDHFDQTEFGKEVAAQTHK | failed
MMANHLVKPDNRNCKRPRELESPVPDSPQLSSLGKSDSSFSEISGLFYKDEALEKDLNDVSKEINLMLSTYAKLLSERAAVDASYIDEIDELFKEANAIENFLIQKREFLRQRFTVIANTLHR | failed
MMDFDFLEGKRLTEDVALDETMVWNEDIEMLDLHLVATSALIGVVHRVSYELLSRYLPNDYTAVVVETLARHVKAVPTGTRVAVGVRVVGVVGNRVKFRGIVMSGDEKILEAEFVRAIVPREKLRRLALEKAEKTSRLFGI | not failed
MMDRDDDGYAERVAFYDTVYEQPERALDLAWLRRWLPPQFFGRRVLELACGSGYWTQYLAPAARAYQALDVSAGALALAGQRPGVGGVAFAVGEVETLPRPAQPFDAVFAGLWFSHLPRQRREGALAALHGCLAPGATVILLDNSEAQGGQFPVVEYDSEGNGYQSRPRHDGGQSRVLKNFPTEAEFRILLAPYGAAEIALMRREHFWLLRYRLPSRH | failed
MMDYGIDIWGNENFIIKNGKVCINYEKKPAIIDIVKELRDDGYKGPLLLRFPHLIQKQIENIYGNFNKARKEFGYKGGFNAVYPLKVNQYPGFVKNLVKLGKDYNYGLEAGSKAELLLAMAYNNEGAPITVNGFKDRELINIGFIAAEMGHNITLTIEGLNELEAIIDIAKERFKPKPNIGLRVRLHSAGVGIWAKSGGINSKFGLTSTELIEAVNLLKENKLLEQFTMIHFHLGSQITEIHPLKKALNEAGNIYTELRKMGAKNLKAINLGGGLAVEYSQFKNEKSRNYTLREYANDVVFILKNIAEQKKDLEPDIFIESGRFVAANHAVLIAPVLELFSQEYAENKLILKKQNPKLIDELYDLYKSIKPSNALEYLHDSIDHLESILTLFDLGYVDLQDRSNAEILTHLITKKAILLLGDKQNPADLLAIQDEVQERYLVNFSLFQSMPDFWGLEQNFPIMPLDRLDEEPTRSASIWDITCDSDGEISYSKDKPLFLHDVDVEKENYFLGFFLVGAYQEVLGMKHNLFTHPTEAIISINEKGYEVEGIIEAQSILDTLEDLDYDIHAIMDILNERISNSKLVNDKQKKHILGELYLFLNDNGYLKSIGVLEHHHHHH | not failed
MMEDRSLNSHGMPSRRGLEPLEWGATGLTVVLSVAAAATQQAILTAIAPLPLSLAVGLNWVSRKKLDDQFQVFRQQQEAKIAELVASQGQQQSELASLNLALAQVRDRLEDVQKQVMQLNQGAQDLHDYTRILDTEQKQIEEVLDCLREIEKNTQVIQVNPSHAKAYYNRGLTHQRLGDAEAAILDYTEAIRLNDTYAKAYHNRGVARSTLGDRKGAVEDLRTAAKLFFEQGDISSYQRARDLAKRIHEVGSIEQDNQEGTIKEVPLEILFS | failed
MMEKDERFKQAEFGAIVGIVGNIILAIIKAVIGYIGNSKALLADAVHSASDVIGSLAVLFGLRAAKQPPDEDHPYGHGKAESISAIIVAVLLFIVGIEIAISSIKAFSQELEPPKGITIFAVVLSIIVKEGMFQYKFRLGKRVNSDAIIANAYEHRSDVFSSIAALIGICAAIIGGKFGLDWLVYADPIAGLFVSLLVAKMAWSIGTEAIHATLDHVLHEEDVIPLREAVLQIDGVKKIGSLYAREHGHYVIVDIKVSVDPYITVEEGHRIGKRVKETLMLQDNVQNVFVHINPYSPN | failed
MMGDYGITEEDLVIEEAQGYPRAYTKICRDFDAFPYKNGPPFTFMPYILQQNESLRCREVDQMFPVIDPKARPTTKPKIFLSLLWKQLNHLGNAGFDPAVIRIDPYGNVVYFHADSASPLAWSFDHWFPCSRGGLTVPSNLRIVQWQARKNKKDKLEFLVPWWDLQVGISVNQFLSIFAASSSDFRYR | failed
MMGGKGGFYRHLAVEGNFGGTTQSLAVCSTIGANSVKMPTSFLYTPHRQAEFMALLQISEPGMSASPHRHRLAAGIDLGTTNSLVATVRSGSAACLPDAEGRVTLPSVVRYLENGGIEVGKTALSAQKTDPLNTVSSAKRLIGRTLADLHQNTHYLPYRFGDNQRVIELHTRQGVKTPVEVSAEILKTLKSRAEETLGGDLVGVVITVPAYFDDAQRQATKDAARLAGLNVLRLLNEPTAAAIAYGLDNASEGTFVVYDLGGGTFDVSVLQLTKGLFEVKATGGNSALGGDDFDHRLFCRLLEQNGLSQLNEQDSQLLLSLVRAAKEQLTTQTEARIQATLSDGMAIDTSISRAEFHNLTQHLVMKTLEPVTQALKDAGVGKNEVKGVIMVGGSTRMLHVQQAVATFFGQTPLNNLNPDEVVALGAAIQANVLAGNKTDGEWLLLDVTPLSLGLETYGGLAEKIIPRNSTIPTARAQDFTTFKDGQTAMTIHVVQGERELVSDCRSLAKFTLRGIPPMAAGAARIRVTFQIDADGLLSVSAQEQSTGVQAQIEVKPSYGLDDGAITRMLKDSMDNAAEDMAARARAEAVVEAESLTDAVNAALELDSDLLDAKELQQIRQGIADLQGRLKDGKAEDIRSAVAKLSRSTDNFAAKRMNRNIQRALTGQSVDNI | failed
MMHHALHIKNGIVIDPKNGVKAEKMDIFVKNGKIVEESEVKGEDVKVIDANNKLVVAGGVDMHAHIAGSKINTGRTMRPEEMRVVRNIAGKFRAAVGRVLLTSPLEHHHHHH | failed

— a protein production outcome set (Wang et al. 2014)
